Columns and labels:
[1] = target: T1, human CD112R over-expressed on Jurkat cells (human, UniProt Q6DKI7 1-326); assay: flow cytometry on Jurkat cells over-expressing human CD112R, 0.63 ug/mL antibody
T1 construct: whole, on cells; also called Jurkat-CD112R OE; PVRIG
T1 sequence (looked up): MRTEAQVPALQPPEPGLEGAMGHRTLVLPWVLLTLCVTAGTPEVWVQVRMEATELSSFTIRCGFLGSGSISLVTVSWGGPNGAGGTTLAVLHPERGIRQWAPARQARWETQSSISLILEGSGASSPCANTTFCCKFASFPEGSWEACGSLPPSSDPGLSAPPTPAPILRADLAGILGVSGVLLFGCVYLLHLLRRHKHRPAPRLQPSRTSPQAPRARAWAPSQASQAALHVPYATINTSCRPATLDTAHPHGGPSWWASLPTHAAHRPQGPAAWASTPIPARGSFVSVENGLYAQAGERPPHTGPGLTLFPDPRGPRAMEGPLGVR
Method: The ability of anti-CD112R antibodies to bind to CD112R expressed on cells was evaluated. 1×10⁵ Jurkat cells (acute T cell leukemia cell line, ATCC # TIB-152) that were either wild type or engineered to over-express human CD112R (Jurkat-CD112R OE) were added to each well of a 96-well V bottom plate and stained with either anti-CD112R antibodies or an IgG1 isotype control (0.63 μg/mL) for 1 hour at 4° C. Cells were washed twice with PBS+2% FCS and resuspended with Alexa Fluor® 647 anti-human IgG Fc antibody (Biolegend, Cat #409320) diluted 1:100 in PBS+2% FCS and incubated at 4° C. for 30 minutes. Cells were subsequently washed twice and resuspended in PBS+2% FCS. Cellular data was acquired using a LSRFortessa X-20 (BD Biosciences) and analyzed with FlowJo software (Tree Star).
Results are depicted in FIG. 1. Quantitation of antibody binding to Jurkat-CD112R OE cells was assessed by the geometric mean fluorescent intensity (gMFI) of the Alexa Fluor® 647 signal.

[2] = target: T2, mouse CD112R over-expressed on 293T cells (mouse); assay: flow cytometry on 293T cells over-expressing mouse CD112R
T2 construct: whole, on cells; also called 293T.mCD112R; 293T-mouse CD112R
Method: The ability of anti-CD112R antibodies to bind to mouse CD112R was evaluated on cells overexpressing mouse CD112R. 0.8×10⁵ 293T cells (ATCC CRL-3216) that were engineered to overexpress mouse CD112R (293T.mCD112R) were added to each well of a 96-well V bottom plate and stained with either anti-CD112R antibodies or an IgG1 isotype control at a starting concentration of […], with 3-fold serial dilutions for 30 minutes at 4° C. Cells were washed twice with PBS+2% FCS and resuspended with Alexa Fluor® 647 anti-human IgG Fc antibody (Biolegend, Cat #409320) diluted 1:100 in PBS+2% FCS and incubated at 4° C. for 20 minutes. Cells were subsequently washed twice and resuspended in PBS+2% FCS. Cellular data was acquired using a LSRFortessa X-20 (BD Biosciences) and analyzed with FlowJo software (Tree Star).
Results are depicted in FIG. 17 and Table 11. Quantitation of antibody binding to 293T.mCD112R cells was assessed by the geometric mean fluorescent intensity (gMFI) of the Alexa Fluor® 647 signal.

B1: Antibody 2 (antibody, V domains shown)
VH: EVQLVESGGGLVKPGGSLRLSCAASGFTFSEYTMNWVRQAPGKGLEWVSAIVGSGDSTYYADSVKGRFTISRDNSKNTLYLQMNSLRAEDTAVYYCAKDYSSGDWIDYGMDVWGQGTTVTVSS
VL: DIQMTQSPSSLSASVGDRVTITCQASQDISNYLNWYQQKPGKAPKLLIYDASNLATGVPSRFSGSGSGTDFTFTISSLQPEDIATYYCQQFDLLPPTFGGGTKVEIK
notes: Tested as IgG detected with anti-human IgG Fc, compared with an IgG1 isotype control; also called antibody clone number 2; clone 2
Question: For B1, which “Jurkat-CD112R over-expressed (OE) gMFI (fold increase over isotype)” value [1] is on record?
Answer: 63.9 fold

B2: Antibody 5 (antibody, V domains shown)
VH: EVQLLESGGGLVQPGGSLRLSCAASGFTFSDYAMIWVRQAPGKGLEWVSAISGGGESTYYADSVKGRFTISRDNSKNTLYLQMNSLRAEDTAVYYCAKDYSSGDWIDYGMDVWGQGTTVTVSS
VL: DIQMTQSPSSLSASVGDRVTITCQASQDISNYLNWYQQKPGKAPKLLIYDASNLATGVPSRFSGSGSGTDFTFTISSLQPEDIATYYCQQFDLLPPTFGGGTKVEIK
notes: Tested as IgG detected with anti-human IgG Fc, compared with an IgG1 isotype control; also called antibody clone number 5; clone 5
Question: How did the “Jurkat-CD112R over-expressed (OE) gMFI (fold increase over isotype)” value [1] turn out when B2 was run?
Answer: 63.3 fold

B3: Antibody 15 (antibody, V domains shown)
VH: EVQLVESGGGLVQPGRSLRLSCTASGFTFGDVAMSWFRQAPGKGLEWVGYIGSKAYGGETEYTASVKGRFTISRDGSKSIAYLQMNSLKTEDTAVYYCARAGHSYGSIASNWFDPWGQGTLVTVSS
VL: DIQMTQSPSSLSASVGDRVTITCRASQSISSYLNWYQQKPGKAPKLLIYGASSLQSGVPSRFSGSGSGTDFTLTISSLQPEDFATYYCQQGFYTPWTFGGGTKVEIK
notes: Tested as IgG detected with anti-human IgG Fc, compared with an IgG1 isotype control; also called antibody clone number 15; clone 15
Question: With B3 as the binder, how does the “Jurkat-CD112R over-expressed (OE) gMFI (fold increase over isotype)” value [1] read?
Answer: 53.2 fold

B4: Antibody 32 (antibody, V domains shown)
VH: QVQLVQSGAEVKKPGSSVKVSCKASGGTFSSYAISWVRQAPGQGLEWMGGIIPISGTANYAQKFQGRVTITADESTSTAYMELSSLRSEDTAVYYCARDTGRGYTRHFWFDPWGQGTLVTVSS
VL: DIQMTQSPSSLSASVGDRVTITCRASQSISSYLNWYQQKPGKAPKLLIYAASSLQSGVPSRFSGSGSGTDFTLTISSLQPEDFATYYCQQSDILYTFGGGTKVEIK
notes: Tested as IgG detected with anti-human IgG Fc, compared with an IgG1 isotype control; Parent of antibodies 33, 34, 35 and 36; also called antibody clone number 32; parent clone 32
Question: B4 was tested. Which “293T-mouse CD112R gMFI (fold increase over isotype)” value [2] did it give?
Answer: 14.9 fold

Question: And the “Jurkat-CD112R over-expressed (OE) gMFI (fold increase over isotype)” value [1]?
Answer: 27.9 fold

B5: Antibody 33 (antibody, V domains shown)
VH: QVQLVQSGAEVKKPGSSVKVSCKASGGTFGNYAISWVRQAPGQGLEWMGGIIPIPGIANYAQKFQGRVTITADESTSTAYMELSSLRSEDTAVYYCARDTGRGYTRHFWFDPWGQGTLVTVSS
VL: DIQMTQSPSSLSASVGDRVTITCRASQSISSYLNWYQQKPGKAPKLLIYAASSLQSGVPSRFSGSGSGTDFTLTISSLQPEDFATYYCQQSDILYTFGGGTKVEIK
notes: Tested as IgG detected with anti-human IgG Fc, compared with an IgG1 isotype control; also called antibody clone number 33; clone 33
Question: Which results are given for B5?
Answer: 293T-mouse CD112R gMFI (fold increase over isotype) [2]: 73.3 fold; Jurkat-CD112R over-expressed (OE) gMFI (fold increase over isotype) [1]: 34.2 fold

B6: Antibody 34 (antibody, V domains shown)
VH: QVQLVQSGAEVKKPGSSVKVSCKASGGTFSSAAISWVRQAPGQGLEWMGGIFPISGHANYAQKFQGRVTITADESTSTAYMELSSLRSEDTAVYYCARDTGRGYTRHFWFDPWGQGTLVTVSS
VL: DIQMTQSPSSLSASVGDRVTITCRASQSISSYLNWYQQKPGKAPKLLIYAASSLQSGVPSRFSGSGSGTDFTLTISSLQPEDFATYYCQQSDILYTFGGGTKVEIK
notes: Tested as IgG detected with anti-human IgG Fc, compared with an IgG1 isotype control; also called antibody clone number 34; clone 34
Question: For B6, which “293T-mouse CD112R gMFI (fold increase over isotype)” value [2] is on record?
Answer: 72.2 fold

Question: And the “Jurkat-CD112R over-expressed (OE) gMFI (fold increase over isotype)” value [1]?
Answer: 33.8 fold

B7: Antibody 35 (antibody, V domains shown)
VH: QVQLVQSGAEVKKPGSSVKVSCKASGGTFSSAAISWVRQAPGQGLEWMGNIIPIVGIANYAQKFQGRVTITADESTSTAYMELSSLRSEDTAVYYCARDTGRGYTRHFWFDPWGQGTLVTVSS
VL: DIQMTQSPSSLSASVGDRVTITCRASQSISSYLNWYQQKPGKAPKLLIYAASSLQSGVPSRFSGSGSGTDFTLTISSLQPEDFATYYCQQSDILYTFGGGTKVEIK
notes: Tested as IgG detected with anti-human IgG Fc, compared with an IgG1 isotype control; also called antibody clone number 35; clone 35
Question: Which “293T-mouse CD112R gMFI (fold increase over isotype)” value [2] does the source give for B7 here?
Answer: 55.6 fold

Question: What about the “Jurkat-CD112R over-expressed (OE) gMFI (fold increase over isotype)” value [1] of the same binder?
Answer: 32.1 fold

B8: Antibody 36 (antibody, V domains shown)
VH: QVQLVQSGAEVKKPGSSVKVSCKASGGTFATYAISWVRQAPGQGLEWMGGIFPLSGTANYAQKFQGRVTITADESTSTAYMELSSLRSEDTAVYYCARDTGRGYTRHFWFDPWGQGTLVTVSS
VL: DIQMTQSPSSLSASVGDRVTITCRASQSISSYLNWYQQKPGKAPKLLIYAASSLQSGVPSRFSGSGSGTDFTLTISSLQPEDFATYYCQQSDILYTFGGGTKVEIK
notes: Tested as IgG detected with anti-human IgG Fc, compared with an IgG1 isotype control; also called antibody clone number 36; clone 36
Question: What does the source list for B8?
Answer: 293T-mouse CD112R gMFI (fold increase over isotype) [2]: 76.3 fold; Jurkat-CD112R over-expressed (OE) gMFI (fold increase over isotype) [1]: 31 fold

B9: Antibody 38 (antibody, V domains shown)
VH: EVQLLESGGGLVQPGGSLRLSCAASGFTFSGHLMSWVRQAPGKGLEWVSAISGSAGETYYADSVKGRFTISRDNSKNTLYLQMNSLRAEDTAVYYCARDAYYDDWSGWADWYFDLWGRGTLVTVSS
VL: EIVLTQSPATLSLSPGERATLSCRASQSVSRYLAWYQQKPGQAPRLLIYDASNRATGIPARFSGSGSGTDFTLTISSLEPEDFAVYYCQQVSLLPPTFGGGTKVEIK
notes: Tested as IgG detected with anti-human IgG Fc, compared with an IgG1 isotype control; also called antibody clone number 38; clone 38
Question: B9 was tested. Which “Jurkat-CD112R over-expressed (OE) gMFI (fold increase over isotype)” value [1] did it give?
Answer: 51.7 fold

B10: Antibody 44 (antibody, V domains shown)
VH: QVQLVQSGAEVKKPGSSVKVSCKASGGTFDNYYISWVRQAPGQGLEWMGGIFPIFGTANYAQKFQGRVTITADESTSTAYMELSSLRSEDTAVYYCAREVGHYSGSPYYMDVWGKGTTVTVSS
VL: DIQMTQSPSTLSASVGDRVTITCRASQSINSWLAWYQQKPGKAPKLLISDASSLESGVPSRFSGSGSGTEFTLTISSLQPDDFATYYCQQVGPYLTFGGGTKVEIK
notes: Tested as IgG detected with anti-human IgG Fc, compared with an IgG1 isotype control; also called antibody clone number 44; clone 44
Question: B10 was tested. Which “Jurkat-CD112R over-expressed (OE) gMFI (fold increase over isotype)” value [1] did it give?
Answer: 46.9 fold

B11: Antibody 46 (antibody, V domains shown)
VH: EVQLVESGGGLVQPGRSLRLSCTASGFTFGDYAMSWFRQAPGKGLEWVGFIGSKAYGGTTEYTASVKGRFTISRDGSKSIAYLQMNSLKTEDTAVYYCARGPRRYTYGMDVWGQGTTVTVSS
VL: DIQMTQSPSSLSASVGDRVTITCRASQSISSYLNWYQQKPGKAPKLLIYAASSLQSGVPSRFSGSGSGTDFTLTISSLQPEDFATYYCQQSSTPLTFGGGTKVEIK
notes: also called antibody clone number 46; clone 46
Question: How did the “293T-mouse CD112R gMFI (fold increase over isotype)” value [2] turn out when B11 was run?
Answer: 74.8 fold

Question: And the “Jurkat-CD112R over-expressed (OE) gMFI (fold increase over isotype)” value [1]?
Answer: 23.8 fold

B12: Antibody 58 (antibody, V domains shown)
VH: EVQLVESGGGLVQPGRSLRLSCTASGFTFGDYAMSWFRQAPGKGLEWVGFIGSKFYGGETEYTASVKGRFTISRDGSKSIAYLQMNSLKTEDTAVYYCARGPRRYTYGMDVWGQGTTVTVSS
VL: DIQMTQSPSSLSASVGDRVTITCRASQSISSYLNWYQQKPGKAPKLLIYAASSLQSGVPSRFSGSGSGTDFTLTISSLQPEDFATYYCQQSSTPLTFGGGTKVEIK
notes: Tested as IgG detected with anti-human IgG Fc, compared with an IgG1 isotype control; also called antibody clone number 58; clone 58
Question: Which “293T-mouse CD112R gMFI (fold increase over isotype)” value [2] does the source give for B12 here?
Answer: 79.4 fold

Question: What about the “Jurkat-CD112R over-expressed (OE) gMFI (fold increase over isotype)” value [1] of the same binder?
Answer: 37.3 fold

B13: Antibody 10 (antibody, V domains shown)
VH: EVQLVESGGGLVQPGRSLRLSCAASGFTFDDYAVHWVRQAPGKGLEWVSGISWSSGLIGYADSVKGRFTISRDNAKNSLYLQMNSLRAEDTAVYYCAKGPPTYQDYFDLWGRGTLVTVSS
VL: EIVLTQSPATLSLSPGERATLSCRASQSVSRYLAWYQQKPGQAPRLLIYDASNRATGIPARFSGSGSGTDFTLTISSLEPEDFAVYYCQQVSFFPPITFGGGTKVEIK
notes: Tested as IgG detected with anti-human IgG Fc, compared with an IgG1 isotype control; also called antibody clone number 10; clone 10
Question: How did the “Jurkat-CD112R over-expressed (OE) gMFI (fold increase over isotype)” value [1] turn out when B13 was run?
Answer: 55.7 fold

Source: patent US20200040081A1 (SURFACE ONCOLOGY, published 2020)
